From PMC4022893, “Evidence for Follicle-stimulating Hormone Receptor as a Functional Trimer*” (The Journal of Biological Chemistry, 2014)
Values belong to the binder of their own block, whether it stands above or below them.

Key:
[1] = target: T1, human follicle-stimulating hormone receptor on CHO-DUKX cell membranes (human, UniProt P23945 18-695); experiment: radioligand binding; 5 μg CHO-FSHR membrane with increasing concentrations of 125I-ligand; 10 mM Tris pH 7.4, 5 mM MgCl2, 0.2% BSA; 90 min at 37 °C; filtration; nonspecific binding with 500-fold excess of FSH; no Compound 5; details: one partner purified
T1 construct: follicle-stimulating hormone receptor, human, expressed in CHO-DUKX cells; Used as isolated membranes, not live cells; also called FSHR; hFSHR; source: CHO-DUKX cells expressing the human FSH receptor, membrane preparation (nitrogen cavitation, 100,000 x g pellet)
T1 sequence (looked up): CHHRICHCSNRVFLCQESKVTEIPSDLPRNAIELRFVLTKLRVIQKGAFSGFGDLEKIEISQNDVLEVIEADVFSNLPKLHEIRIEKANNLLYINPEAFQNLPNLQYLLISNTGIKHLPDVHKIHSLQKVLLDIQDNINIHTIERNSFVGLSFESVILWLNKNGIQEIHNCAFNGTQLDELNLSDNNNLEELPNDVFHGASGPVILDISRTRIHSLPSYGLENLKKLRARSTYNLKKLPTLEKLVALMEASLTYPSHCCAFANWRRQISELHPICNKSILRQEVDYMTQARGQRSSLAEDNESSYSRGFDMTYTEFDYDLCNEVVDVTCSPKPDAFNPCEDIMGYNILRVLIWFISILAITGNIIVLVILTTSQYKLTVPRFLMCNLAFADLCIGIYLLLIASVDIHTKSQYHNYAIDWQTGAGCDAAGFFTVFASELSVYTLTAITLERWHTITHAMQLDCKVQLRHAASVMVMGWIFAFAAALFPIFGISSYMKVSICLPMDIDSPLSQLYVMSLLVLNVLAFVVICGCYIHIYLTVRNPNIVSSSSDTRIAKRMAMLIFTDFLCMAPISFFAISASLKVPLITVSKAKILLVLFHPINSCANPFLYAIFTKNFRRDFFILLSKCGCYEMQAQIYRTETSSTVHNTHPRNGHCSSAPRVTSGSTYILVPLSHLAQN

[2] = target: T1, human follicle-stimulating hormone …; experiment: as above; details: one partner purified; remark: listed apart in the source
[3] = target: the molecule itself; experiment: crystal structure; FSH-FSHRED complex at 10 mg/ml, 20 °C, hanging drops, 0.1 M imidazole pH 8.0, 20% Jeffamine M-600; space group P3_(1)

- Kd [1]: 0.4 nM
- receptor binding ratio of the N52D mutant to fully glycosylated FSH [2]: ~3
B1: 125I-N52D-FSH (FSH with Asn52 of the alpha-subunit mutated to aspartate) (ligand)
chain 1: not shown
chain 2: NSCELTNITIAIEKEECRFCISINTTWCAGYCYTRDLVYKDPARPKIQKTCTFKELVYETVRVPGCAHHADSLYTYPVATQCHCGKCDSDSTDCTVRGLGPSYCSFGEMKE
modifications: no glycan at position 52; 125I label (chain not stated)
notes: glycoprotein hormones alpha chain (FSH alpha-subunit), human; Heterodimer; the other three glycosylation sites are unchanged; also called αN52D-FSH mutant; mutant-N52D; source: recombinant, prepared using the same protocols as the fully glycosylated FSH; 125I-labelled (PerkinElmer Life Sciences)

B2: full ectodomain of human FSHR (FSHRED, Ser16-Arg366) (domain or fragment, UniProt P23945 16-366, looked up)
chain: SGCHHRICHCSNRVFLCQESKVTEIPSDLPRNAIELRFVLTKLRVIQKGAFSGFGDLEKIEISQNDVLEVIEADVFSNLPKLHEIRIEKANNLLYINPEAFQNLPNLQYLLISNTGIKHLPDVHKIHSLQKVLLDIQDNINIHTIERNSFVGLSFESVILWLNKNGIQEIHNCAFNGTQLDELNLSDNNNLEELPNDVFHGASGPVILDISRTRIHSLPSYGLENLKKLRARSTYNLKKLPTLEKLVALMEASLTYPSHCCAFANWRRQISELHPICNKSILRQEVDYMTQARGQRSSLAEDNESSYSRGFDMTYTEFDYDLCNEVVDVTCSPKPDAFNPCEDIMGYNILR
notes: follicle-stimulating hormone receptor, human, full ectodomain, residues Ser16-Arg366; Three copies form a trimer in the crystal; also called FSHED; FSHR extracellular domain
- stoichiometry N [3]: 3
